Data reported in patent publication US20190134153A1, “IMMUNOMODULATORY EFFECT OF INHALED KINASE INHIBITOR PEPTIDES IN LUNG” (MOERAE MATRIX, INC., priority 2017, published 2019).

Assays:
Assay in all cases: Kinase Profiling Assay
Type in all cases: biochemical
Details in all cases: 100 μM
[1] = target: T1, NEK3(h) (Homo sapiens, UniProt P51956)
T1 sequence (P51956 1-506): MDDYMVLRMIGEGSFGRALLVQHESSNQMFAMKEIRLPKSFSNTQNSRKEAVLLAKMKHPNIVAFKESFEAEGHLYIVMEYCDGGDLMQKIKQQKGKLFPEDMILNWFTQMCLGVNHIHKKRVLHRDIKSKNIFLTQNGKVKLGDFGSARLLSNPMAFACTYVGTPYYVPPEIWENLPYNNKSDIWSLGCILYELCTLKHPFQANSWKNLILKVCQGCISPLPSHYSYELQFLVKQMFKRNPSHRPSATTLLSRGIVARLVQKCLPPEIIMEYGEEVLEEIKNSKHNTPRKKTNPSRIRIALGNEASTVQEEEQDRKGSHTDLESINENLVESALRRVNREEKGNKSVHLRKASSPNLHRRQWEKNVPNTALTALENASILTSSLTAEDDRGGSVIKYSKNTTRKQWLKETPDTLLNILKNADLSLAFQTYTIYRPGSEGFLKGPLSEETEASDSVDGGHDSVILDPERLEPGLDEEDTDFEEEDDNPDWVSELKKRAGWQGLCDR

[2] = target: T2, LKB1(h) (Homo sapiens, UniProt Q15831)
T2 sequence (Q15831 1-433): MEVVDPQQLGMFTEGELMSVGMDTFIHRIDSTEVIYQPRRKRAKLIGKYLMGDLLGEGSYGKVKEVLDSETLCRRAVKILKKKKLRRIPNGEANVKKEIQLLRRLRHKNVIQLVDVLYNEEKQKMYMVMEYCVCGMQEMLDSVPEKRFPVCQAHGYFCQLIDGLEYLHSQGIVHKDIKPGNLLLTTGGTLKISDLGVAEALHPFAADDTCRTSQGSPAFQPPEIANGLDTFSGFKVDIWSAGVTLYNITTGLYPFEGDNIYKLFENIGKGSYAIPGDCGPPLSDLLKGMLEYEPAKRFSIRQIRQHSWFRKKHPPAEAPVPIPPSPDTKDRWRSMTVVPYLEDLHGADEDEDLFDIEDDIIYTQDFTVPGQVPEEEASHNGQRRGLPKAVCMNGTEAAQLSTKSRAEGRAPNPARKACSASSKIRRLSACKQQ
T2 sequence (Q7RTN6 1-431 partner): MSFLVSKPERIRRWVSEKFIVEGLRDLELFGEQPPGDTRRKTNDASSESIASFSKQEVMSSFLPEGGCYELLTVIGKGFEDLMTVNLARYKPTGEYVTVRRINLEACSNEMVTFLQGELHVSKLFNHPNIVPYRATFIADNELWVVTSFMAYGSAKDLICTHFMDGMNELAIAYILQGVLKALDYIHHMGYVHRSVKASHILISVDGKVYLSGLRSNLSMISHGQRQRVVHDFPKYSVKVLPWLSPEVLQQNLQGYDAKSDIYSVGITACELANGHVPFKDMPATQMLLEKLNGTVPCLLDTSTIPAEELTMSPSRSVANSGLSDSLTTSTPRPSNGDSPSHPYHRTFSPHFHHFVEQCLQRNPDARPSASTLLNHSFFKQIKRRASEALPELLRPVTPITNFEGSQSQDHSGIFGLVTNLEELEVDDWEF
T2 sequence (Q9Y376 1-341 partner): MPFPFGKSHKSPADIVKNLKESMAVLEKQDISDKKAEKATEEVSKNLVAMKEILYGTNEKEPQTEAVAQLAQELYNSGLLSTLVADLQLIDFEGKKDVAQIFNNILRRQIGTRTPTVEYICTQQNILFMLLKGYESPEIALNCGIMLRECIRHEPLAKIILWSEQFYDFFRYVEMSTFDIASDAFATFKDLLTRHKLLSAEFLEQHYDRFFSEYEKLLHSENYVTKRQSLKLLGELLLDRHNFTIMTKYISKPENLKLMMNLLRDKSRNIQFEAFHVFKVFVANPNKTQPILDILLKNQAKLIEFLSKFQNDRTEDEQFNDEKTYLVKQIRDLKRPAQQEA

[3] = target: Lyn(h) (Homo sapiens, UniProt P07948)
[4] = target: ErbB4(h) (Homo sapiens, UniProt Q15303)
[5] = target: T3, Tec(h) activated (Homo sapiens, UniProt P42680)
T3 sequence (P42680 1-631): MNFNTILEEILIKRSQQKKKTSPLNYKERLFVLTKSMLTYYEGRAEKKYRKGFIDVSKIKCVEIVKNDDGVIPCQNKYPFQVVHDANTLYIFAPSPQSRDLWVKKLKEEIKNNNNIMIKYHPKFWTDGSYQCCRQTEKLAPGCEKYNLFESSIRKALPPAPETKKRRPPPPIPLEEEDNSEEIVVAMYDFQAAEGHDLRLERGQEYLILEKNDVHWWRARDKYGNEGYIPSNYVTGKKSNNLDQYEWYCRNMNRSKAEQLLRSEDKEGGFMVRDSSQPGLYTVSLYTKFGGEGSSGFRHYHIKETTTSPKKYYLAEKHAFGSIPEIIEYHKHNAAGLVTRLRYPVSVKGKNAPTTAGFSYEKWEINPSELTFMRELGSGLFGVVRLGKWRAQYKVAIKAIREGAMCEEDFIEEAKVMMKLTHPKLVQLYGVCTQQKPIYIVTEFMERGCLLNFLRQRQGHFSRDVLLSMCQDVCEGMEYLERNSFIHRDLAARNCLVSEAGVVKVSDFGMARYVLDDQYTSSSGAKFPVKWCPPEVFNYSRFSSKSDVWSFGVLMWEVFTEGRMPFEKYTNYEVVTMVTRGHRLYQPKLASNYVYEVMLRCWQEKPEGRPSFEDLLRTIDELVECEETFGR

[6] = target: EphA4(h) (Homo sapiens, UniProt P54764)
[7] = target: MSK1(h) (Homo sapiens, UniProt O75582)
[8] = target: CLK3(h) (Homo sapiens, UniProt P49761)
[9] = target: MSSK1(h) (Homo sapiens, UniProt Q9UPE1)
[10] = target: MRCKβ(h) (Homo sapiens, UniProt Q9Y5S2)
[11] = target: CDK2/cyclinE(h) (Homo sapiens, UniProt P24941)

Chain of MSK1(h) (O75582 whole entry): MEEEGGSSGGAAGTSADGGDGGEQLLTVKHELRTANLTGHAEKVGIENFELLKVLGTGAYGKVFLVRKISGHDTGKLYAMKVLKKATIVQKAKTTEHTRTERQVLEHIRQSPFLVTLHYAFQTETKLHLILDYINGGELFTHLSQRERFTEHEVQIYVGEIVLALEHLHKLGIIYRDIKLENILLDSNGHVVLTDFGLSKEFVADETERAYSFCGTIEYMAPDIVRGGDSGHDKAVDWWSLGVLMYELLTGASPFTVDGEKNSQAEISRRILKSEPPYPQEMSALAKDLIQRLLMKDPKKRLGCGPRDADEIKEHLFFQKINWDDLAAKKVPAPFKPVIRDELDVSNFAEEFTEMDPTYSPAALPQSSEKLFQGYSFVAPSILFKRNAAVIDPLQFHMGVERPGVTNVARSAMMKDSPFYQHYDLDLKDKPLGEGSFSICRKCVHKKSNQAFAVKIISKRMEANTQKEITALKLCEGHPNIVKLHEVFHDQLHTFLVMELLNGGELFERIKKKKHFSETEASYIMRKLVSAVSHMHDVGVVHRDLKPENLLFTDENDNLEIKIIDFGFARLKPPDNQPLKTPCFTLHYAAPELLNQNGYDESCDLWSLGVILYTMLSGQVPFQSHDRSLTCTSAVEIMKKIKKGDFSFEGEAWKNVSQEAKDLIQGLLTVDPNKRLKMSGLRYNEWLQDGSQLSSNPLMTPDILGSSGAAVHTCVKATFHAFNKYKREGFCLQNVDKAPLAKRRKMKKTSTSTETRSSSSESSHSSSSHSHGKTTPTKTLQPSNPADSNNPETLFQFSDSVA
Chain of CLK3(h) (P49761 whole entry): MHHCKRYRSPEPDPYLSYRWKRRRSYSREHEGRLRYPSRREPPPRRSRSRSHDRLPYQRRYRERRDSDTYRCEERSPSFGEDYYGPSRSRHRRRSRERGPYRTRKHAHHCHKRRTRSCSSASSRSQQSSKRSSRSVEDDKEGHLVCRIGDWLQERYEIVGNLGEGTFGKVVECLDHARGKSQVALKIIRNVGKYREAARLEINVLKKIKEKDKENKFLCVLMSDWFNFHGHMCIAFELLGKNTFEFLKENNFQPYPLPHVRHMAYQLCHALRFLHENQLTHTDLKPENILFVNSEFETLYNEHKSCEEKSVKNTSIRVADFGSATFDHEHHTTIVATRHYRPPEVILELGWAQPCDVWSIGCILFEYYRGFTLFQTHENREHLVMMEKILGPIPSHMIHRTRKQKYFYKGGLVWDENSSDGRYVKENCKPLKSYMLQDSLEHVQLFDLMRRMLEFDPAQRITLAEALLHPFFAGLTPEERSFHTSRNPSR
Chain of Lyn(h) (P07948 whole entry): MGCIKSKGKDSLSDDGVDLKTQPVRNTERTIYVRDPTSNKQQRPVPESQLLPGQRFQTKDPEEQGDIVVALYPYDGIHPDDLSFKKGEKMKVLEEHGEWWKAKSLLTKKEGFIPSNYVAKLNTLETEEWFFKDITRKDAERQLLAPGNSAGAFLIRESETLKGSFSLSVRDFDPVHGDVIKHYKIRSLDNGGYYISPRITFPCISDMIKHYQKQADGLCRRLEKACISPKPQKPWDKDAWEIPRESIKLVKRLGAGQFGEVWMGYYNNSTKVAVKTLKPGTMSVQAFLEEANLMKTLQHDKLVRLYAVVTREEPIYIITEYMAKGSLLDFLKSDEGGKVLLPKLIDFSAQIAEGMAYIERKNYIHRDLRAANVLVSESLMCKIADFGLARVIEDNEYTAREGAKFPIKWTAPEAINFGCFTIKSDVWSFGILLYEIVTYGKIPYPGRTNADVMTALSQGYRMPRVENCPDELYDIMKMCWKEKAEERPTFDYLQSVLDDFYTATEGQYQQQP
Chain of MRCKβ(h) (Q9Y5S2 whole entry): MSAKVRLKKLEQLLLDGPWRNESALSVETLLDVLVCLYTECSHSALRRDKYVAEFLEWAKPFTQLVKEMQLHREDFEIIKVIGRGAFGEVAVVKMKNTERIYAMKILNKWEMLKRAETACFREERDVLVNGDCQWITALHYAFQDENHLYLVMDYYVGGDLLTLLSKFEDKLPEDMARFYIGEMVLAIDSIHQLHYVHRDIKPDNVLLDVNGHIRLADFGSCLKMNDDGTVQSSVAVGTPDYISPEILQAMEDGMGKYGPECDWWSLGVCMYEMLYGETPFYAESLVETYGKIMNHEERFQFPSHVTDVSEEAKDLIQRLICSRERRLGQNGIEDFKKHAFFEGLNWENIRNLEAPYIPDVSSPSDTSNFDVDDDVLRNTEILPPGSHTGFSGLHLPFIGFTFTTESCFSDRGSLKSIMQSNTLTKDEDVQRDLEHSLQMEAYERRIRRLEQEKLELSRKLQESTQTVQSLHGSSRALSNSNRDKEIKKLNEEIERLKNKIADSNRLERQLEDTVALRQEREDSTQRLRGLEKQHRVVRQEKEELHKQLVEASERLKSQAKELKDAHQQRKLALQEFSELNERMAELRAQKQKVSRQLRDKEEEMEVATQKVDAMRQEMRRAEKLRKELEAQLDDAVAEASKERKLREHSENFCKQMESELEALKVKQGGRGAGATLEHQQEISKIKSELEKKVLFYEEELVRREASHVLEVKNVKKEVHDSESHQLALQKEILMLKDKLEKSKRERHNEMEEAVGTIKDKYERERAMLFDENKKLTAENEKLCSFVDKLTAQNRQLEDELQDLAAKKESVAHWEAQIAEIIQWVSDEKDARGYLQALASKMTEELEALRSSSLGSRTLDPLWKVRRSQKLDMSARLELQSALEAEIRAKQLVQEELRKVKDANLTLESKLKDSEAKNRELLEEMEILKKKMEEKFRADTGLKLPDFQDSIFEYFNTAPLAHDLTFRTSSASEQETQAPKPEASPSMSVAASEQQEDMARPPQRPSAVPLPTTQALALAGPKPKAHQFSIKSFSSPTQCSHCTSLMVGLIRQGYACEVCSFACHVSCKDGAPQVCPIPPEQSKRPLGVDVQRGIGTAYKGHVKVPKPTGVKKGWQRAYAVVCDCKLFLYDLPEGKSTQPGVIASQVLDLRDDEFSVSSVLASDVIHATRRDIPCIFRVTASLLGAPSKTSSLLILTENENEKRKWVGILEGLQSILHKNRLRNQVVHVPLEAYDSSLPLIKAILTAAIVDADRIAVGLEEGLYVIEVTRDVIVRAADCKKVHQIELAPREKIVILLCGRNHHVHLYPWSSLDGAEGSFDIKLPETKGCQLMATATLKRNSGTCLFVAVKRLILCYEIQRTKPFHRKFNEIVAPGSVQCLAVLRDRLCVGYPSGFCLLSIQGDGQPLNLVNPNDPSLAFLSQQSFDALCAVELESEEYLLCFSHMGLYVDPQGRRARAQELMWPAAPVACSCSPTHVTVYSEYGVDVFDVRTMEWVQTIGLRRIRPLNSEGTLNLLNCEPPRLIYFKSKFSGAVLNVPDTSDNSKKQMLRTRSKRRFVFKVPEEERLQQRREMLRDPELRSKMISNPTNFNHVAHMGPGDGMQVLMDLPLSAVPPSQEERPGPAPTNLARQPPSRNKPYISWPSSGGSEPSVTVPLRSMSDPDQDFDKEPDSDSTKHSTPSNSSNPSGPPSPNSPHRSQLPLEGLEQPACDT
Chain of ErbB4(h) (Q15303 26-1308): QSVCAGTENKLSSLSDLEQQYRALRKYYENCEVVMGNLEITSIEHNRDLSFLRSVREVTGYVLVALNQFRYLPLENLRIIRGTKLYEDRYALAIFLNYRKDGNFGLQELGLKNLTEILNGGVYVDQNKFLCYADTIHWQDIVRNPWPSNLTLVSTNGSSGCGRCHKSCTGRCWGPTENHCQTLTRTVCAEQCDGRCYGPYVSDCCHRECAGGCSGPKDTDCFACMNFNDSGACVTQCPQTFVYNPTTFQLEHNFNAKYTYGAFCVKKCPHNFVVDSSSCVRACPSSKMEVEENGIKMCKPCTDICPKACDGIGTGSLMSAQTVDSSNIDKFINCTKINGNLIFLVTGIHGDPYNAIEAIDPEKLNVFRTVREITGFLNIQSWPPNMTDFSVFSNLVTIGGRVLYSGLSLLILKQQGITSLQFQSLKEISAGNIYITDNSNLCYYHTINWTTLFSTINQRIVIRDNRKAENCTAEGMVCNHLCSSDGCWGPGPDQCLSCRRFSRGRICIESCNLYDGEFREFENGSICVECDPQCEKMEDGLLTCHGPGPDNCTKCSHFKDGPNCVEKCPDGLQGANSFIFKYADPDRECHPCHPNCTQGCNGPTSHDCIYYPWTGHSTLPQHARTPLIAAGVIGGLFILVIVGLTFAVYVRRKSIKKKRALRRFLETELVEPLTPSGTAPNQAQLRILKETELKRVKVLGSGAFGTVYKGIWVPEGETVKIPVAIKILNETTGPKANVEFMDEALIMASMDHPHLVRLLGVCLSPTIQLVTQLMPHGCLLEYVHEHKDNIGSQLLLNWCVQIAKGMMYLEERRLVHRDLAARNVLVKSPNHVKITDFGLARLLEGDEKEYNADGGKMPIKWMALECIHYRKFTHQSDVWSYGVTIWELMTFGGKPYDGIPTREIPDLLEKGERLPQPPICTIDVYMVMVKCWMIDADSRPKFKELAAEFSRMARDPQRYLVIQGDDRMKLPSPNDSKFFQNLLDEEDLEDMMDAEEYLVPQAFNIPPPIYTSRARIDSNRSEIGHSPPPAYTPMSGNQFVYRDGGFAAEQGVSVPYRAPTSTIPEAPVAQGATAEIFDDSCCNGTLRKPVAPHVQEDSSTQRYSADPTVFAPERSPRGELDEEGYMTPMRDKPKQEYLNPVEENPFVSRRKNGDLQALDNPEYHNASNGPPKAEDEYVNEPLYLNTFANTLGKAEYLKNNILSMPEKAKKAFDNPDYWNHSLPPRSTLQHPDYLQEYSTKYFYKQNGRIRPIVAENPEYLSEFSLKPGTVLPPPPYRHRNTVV

Sequence | % activity [1] [%] | % activity [2] [%] | % activity [3] [%] | % activity [4] [%] | % activity [5] [%] | % activity [6] [%] | % activity [7] [%] | % activity [8] [%] | % activity [9] [%] | % activity [10] [%] | % activity [11] [%]
YARAAARQARAKALNRQLGVA [MMI-0200] | 100 | 99 | 98 | 82 | 77 | 127 | 50 | 76 | 100 | – | –
FAKLAARLYRKALARQLGVAA [MMI-0300] | 92 | 101 | 69 | 40 | 56 | 88 | 32 | 61 | 77 | 83 | 94
KAFAKLAARLYRKALARQLGVAA [MMI-0400] | 85 | 89 | 3 | 0 | 29 | 65 | 28 | 84 | 75 | 71 | 83
HRRIKAWLKKIKALARQLGVAA [MMI-0500] | 20 | 51 | 31 | 2 | 33 | 48 | 8 | 76 | 22 | −10 | 19
